# Test results published in patent publication US20220153832A1 (PIONYR IMMUNOTHERAPEUTICS, published 2022).
# T1: chimera Mouse MARCO CLD-human MARCO SRCR, on cells
# T1 chain: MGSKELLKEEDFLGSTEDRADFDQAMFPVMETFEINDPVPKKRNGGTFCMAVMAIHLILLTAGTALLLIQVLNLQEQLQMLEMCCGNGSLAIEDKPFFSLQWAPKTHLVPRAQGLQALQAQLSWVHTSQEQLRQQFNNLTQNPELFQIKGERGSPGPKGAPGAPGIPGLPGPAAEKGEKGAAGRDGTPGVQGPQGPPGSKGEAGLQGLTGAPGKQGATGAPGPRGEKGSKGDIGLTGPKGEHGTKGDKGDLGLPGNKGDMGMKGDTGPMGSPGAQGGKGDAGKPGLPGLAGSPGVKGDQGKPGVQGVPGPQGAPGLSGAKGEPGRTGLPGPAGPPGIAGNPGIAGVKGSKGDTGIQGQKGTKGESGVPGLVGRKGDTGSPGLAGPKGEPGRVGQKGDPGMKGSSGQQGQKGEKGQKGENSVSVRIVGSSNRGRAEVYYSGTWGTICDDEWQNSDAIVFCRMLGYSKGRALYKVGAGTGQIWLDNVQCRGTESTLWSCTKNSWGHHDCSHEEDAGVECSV
# T2: Cynomolgus MARCO, full length, on cells (cynomolgus, UniProt A0A2K5X0Z2 1-519)
# T2 construct: whole, on cells; also called cyno MARCO; CyMARCO
# T2 sequence: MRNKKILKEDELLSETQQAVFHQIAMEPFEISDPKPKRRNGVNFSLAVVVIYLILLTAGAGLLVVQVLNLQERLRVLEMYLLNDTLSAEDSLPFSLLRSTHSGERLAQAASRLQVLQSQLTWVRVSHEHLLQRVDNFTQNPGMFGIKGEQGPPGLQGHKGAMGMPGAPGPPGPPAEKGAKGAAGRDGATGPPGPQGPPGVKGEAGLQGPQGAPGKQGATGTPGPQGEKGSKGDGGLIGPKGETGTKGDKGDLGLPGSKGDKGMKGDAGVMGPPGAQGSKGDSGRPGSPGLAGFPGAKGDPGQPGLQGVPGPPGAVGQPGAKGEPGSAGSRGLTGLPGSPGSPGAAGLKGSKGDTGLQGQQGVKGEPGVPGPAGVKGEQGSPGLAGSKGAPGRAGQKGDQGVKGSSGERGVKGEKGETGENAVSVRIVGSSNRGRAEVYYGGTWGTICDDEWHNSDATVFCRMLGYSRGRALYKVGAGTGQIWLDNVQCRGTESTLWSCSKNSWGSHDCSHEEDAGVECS
# T3: N-terminally polyhistidine tagged human MARCO ECD (147-520), recombinant (human, UniProt Q9UEW3 147-520)
# T3 construct: also called PI-RG-3000; recombinant human MARCO; not shown: N-terminal polyhistidine tag
# T3 sequence: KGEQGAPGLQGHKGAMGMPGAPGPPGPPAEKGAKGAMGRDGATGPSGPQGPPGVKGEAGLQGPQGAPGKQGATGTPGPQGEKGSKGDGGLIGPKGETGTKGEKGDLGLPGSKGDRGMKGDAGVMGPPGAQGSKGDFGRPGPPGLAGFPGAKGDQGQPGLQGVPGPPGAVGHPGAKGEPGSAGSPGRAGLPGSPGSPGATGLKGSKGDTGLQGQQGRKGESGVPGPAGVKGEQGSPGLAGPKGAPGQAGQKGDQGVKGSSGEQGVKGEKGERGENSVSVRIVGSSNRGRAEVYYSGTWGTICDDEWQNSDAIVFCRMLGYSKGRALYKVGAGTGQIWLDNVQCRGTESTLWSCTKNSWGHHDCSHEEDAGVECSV
# How the values were obtained:
# [1] = target: T1, chimera Mouse MARCO CLD-human MARCO …; assay: flow cytometry, cells overexpressing HuSRCR-mouse CLD chimera
# [2] = target: T2, Cynomolgus MARCO, full length, on cells; assay: flow cytometry, 293T (CyMARCO)
# Method: Supernatants were removed and cell pellets were resuspended in Ca²⁺+ and Mg²⁺+ Dulbecco's phosphate-buffered saline (D-PBS) at 1×10⁶ cells/ml. 100,000 cells/well were plated onto U-bottom 96-well plates for staining and all centrifugation steps were performed at 1500 rpm at 4° C. for 5 min and samples were kept protected from light throughout the protocol. Cells were pelleted and resuspended in 100 μl of Zombie NIR viability dye (BioLegend) prepared by diluting Zombie NIR dimethyl sulfoxide (DMSO) stock 1000-fold in D-PBS. […] Flow cytometry data were analyzed using FlowJo software (version 10.6.1) and data were processed and further analyzed in Microsoft Excel and GraphPad Prism software (version 8). Half-maximal effective concentrations (EC₅₀) were calculated based on geometric mean fluorescence intensities (gMFI). In case when the plates were not able to be analyzed on the cytometer, cells were pelleted after the washes and fixed in 100 μl of 2% paraformaldehyde (PFA), prepared by diluting the 16% (w/v) stock (Thermo Fisher) in DPBS, for 15 min at RT. […]
# [3] = target: T2, Cynomolgus MARCO, full length, on cells; assay: flow cytometry, cells overexpressing cyno MARCO; cyn (second of hu/cyn)
# [4] = target: T3, N-terminally polyhistidine tagged human …; assay: Biacore (SPR), binding affinity to human MARCO
# Outline: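 Binding kinetics and affinity of antibodies for the N-terminally His-tagged human MARCO extracellular domain (147-520) were determined by surface plasmon resonance with multi-cycle kinetics on a Biacore T200. The antibodies were captured on a CM4 chip carrying amine-coupled anti-mouse Fc mAb (4500 RU target), and the runs were done at 25° C in 10 mM HEPES pH 7.4, 150 mM NaCl, 3 mM EDTA, 0.05% surfactant P20. The analyte was injected at 0.625–10 nM with 90 s association and 600 s dissociation, and the constants were fitted in BIAevaluation 3.1.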
# [5] = target: T3, N-terminally polyhistidine tagged human …; assay: Biacore; deamidation stress sample (40 C 2 week)
binder,measurement,setting,value
"PI-3010-AB (antibody, human IgG1, kappa) heavy: not shown light: DIQMTQSPASLSTSLGETVSIECLASEGISNDLAWYQQKSGKSPQLLIYAASRLQDGVPSRFSGSGSGTRYSLKISGMQPEDEADYFCQQSYKYPLTFGSGTKLEIKRTVAAPSVFIFPPSDEQLKSGTASVVCLLNNFYPREAKVQWKVDNALQSGNSQESVTEQDSKDSTYSLSSTLTLSKADYEKHKVYACEVTHQGLSSPVTKSFNRGEC",EC50,[1],0.25 nM
"PI-HX-3031 (antibody, Parental rat hybridoma, rat IgG2a) heavy: QVQLKESGPGLVQPSQTLSLTCTVSGFSLTSYHVSWVRQPPGKGLEWMGAIWTGGSIAYNSLLKSRLSISRDTSKSQVFLKMNSLQTEDTATYYCARDLSDYYSSYTSFDYWGQGVMVTVSTAETTAPSVYPLAPGTALKSNSMVTLGCLVKGYFPEPVTVTWNSGALSSGVHTFPAVLQSGLYTLTSSVTVPSSTWSSQAVTCNVAHPASSTKVDKKIVPRECNPCGCTGSEVSSVFIFPPKTKDVLTITLTPKVTCVVVDISQNDPEVRFSWFIDDVEVHTAQTHAPEKQSNSTLRSVSELPIVHRDWLNGKTFKCKVNSGAFPAPIEKSISKPEGTPRGPQVYTMAPPKEEMTQSQVSITCMVKGFYPPDIYTEWKMNGQPQENYKNTPPTMDTDGSYFLYSKLNVKKETWQQGNTFTCSVLHEGLHNHHTEKSLSHSP light: DIQMTQSPASLSTSLGETVSIECLASEGISNDLAWYQQKSGKSPQLLIYAASRLQDGVPSRFSGSGSGTRYSLKISGMQPEDEADYFCQQSYKYPLTFGSGTKLEIKRADAAPTVSIFPPSTEQLATGGASVVCLMNNFYPRDISVKWKIDGTERRDGVLDSVTDQDSKDSTYSMSSTLSLTKADYESHNLYTCEVVHKTSSSPVVKSFNRNEC",EC50,[2],0.51 nM
"PI-3015-AB (antibody, human IgG1, kappa) heavy: not shown light: DIQMTQSPSSLSASVGDRVTITCRASEGISNDLAWYQQKPGKAPKLLIYAASRLQSGVPSRFSGSGSGTDYTLTISSMQPEDFATYYCQQSYKYPLTFGQGTKLEIKRTVAAPSVFIFPPSDEQLKSGTASVVCLLNNFYPREAKVQWKVDNALQSGNSQESVTEQDSKDSTYSLSSTLTLSKADYEKHKVYACEVTHQGLSSPVTKSFNRGEC",EC50,[3],1.16 nM
same,Kd,[4],0.51 nM
same,Kd,[5],1.24 nM
